Measured values reported in US20220041738A1 (SAITAMA MEDICAL UNIVERSITY, published 2022).
Positions count from the first letter of the chain named. Each block holds one binder with its values, some of them ahead of it.

Experiments:
[1] = target: T1, human ALK2-R202I on cells (human, UniProt Q04771 21-509); assay: immunofluorescence (legend of FIG. 4)
T1 sequence: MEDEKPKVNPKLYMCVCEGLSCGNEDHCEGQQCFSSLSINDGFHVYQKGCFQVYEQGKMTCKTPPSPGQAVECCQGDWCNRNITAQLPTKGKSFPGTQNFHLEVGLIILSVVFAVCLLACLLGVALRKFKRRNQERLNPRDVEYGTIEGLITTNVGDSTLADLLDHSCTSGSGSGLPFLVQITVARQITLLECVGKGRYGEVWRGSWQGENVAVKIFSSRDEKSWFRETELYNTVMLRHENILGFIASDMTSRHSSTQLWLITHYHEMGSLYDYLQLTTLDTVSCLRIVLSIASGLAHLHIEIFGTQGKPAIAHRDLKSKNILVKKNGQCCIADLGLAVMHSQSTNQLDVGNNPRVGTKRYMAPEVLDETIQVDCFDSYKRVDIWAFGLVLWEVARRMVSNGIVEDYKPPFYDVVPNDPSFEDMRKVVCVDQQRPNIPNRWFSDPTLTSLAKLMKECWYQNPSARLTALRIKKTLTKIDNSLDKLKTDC
Outline: (§1)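 C2C12 mouse myoblasts transfected overnight with human ALK2 cDNA (wild-type or FOP variants incl. G325A, pcDEF3 vector). Cells formalin-fixed, goat-serum blocked, stained 1 h RT with purified IgG at 10 µg/mL, then Alexa 594 anti-rat IgG 1 h; DAPI nuclei, fluorescence microscopy read-out.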

[2] = target: T2, human ALK2-R258S on cells (human, UniProt Q04771 21-509); assay: immunofluorescence (legend of FIG. 4)
T2 sequence: T1 sequence with I182R, R238S
Outline: as §1

[3] = target: T3, human ALK2-G356D on cells (human, UniProt Q04771 21-509); assay: immunofluorescence on transfected, formalin-fixed C2C12 cells, IgG at 10 µg/mL, Alexa 594 anti-rat IgG
T3 sequence: T1 sequence with I182R, G336D
Experimental: (§2) Mouse C2C12 cells were seeded into a 96-well plate (Greiner Bio-One) at 0.5×10³ cells/well, and cultured in 15% FBS-containing DMEM medium overnight under the conditions of 5% CO₂ at 37° C. On the following day, the C2C12 cells were transfected with each of a wild-type human ALK2 cDNA integrated into pcDEF3; pcDEF3/human ALK2-L196P, pcDEF3/human ALK2-P197_F198delinsL, pcDEF3/human ALK2-R202I, pcDEF3/human ALK2-R206H, pcDEF3/human ALK2-Q207E, pcDEF3/human ALK2-R258S, pcDEF3/human ALK2-G325A, pcDEF3/human ALK2-G328E, pcDEF3/human ALK2-G328R, pcDEF3/human ALK2-G328W, pcDEF3/human ALK2-G356D, and pcDEF3/human ALK2-R375P, which are variants identified in FOP; and pcDEF3 as a control, using Lipofectamine 2000 (Invitrogen), and further cultured overnight.
(§3) The C2C12 cells were fixed with 10% neutral formalin (Nacalai Tesque, Japan) for 20 minutes at room temperature, and then blocked with 10% goat normal serum for 30 minutes. After the blocking agent was removed, purified IgG diluted to 10 μg/mL with the blocking agent was added, and the cells were left for 1 hour at room temperature. After the cells were washed with PBS three times, Goat Alexa 594-conjugated anti-rat IgG (Invitrogen) diluted to 1:1000 with the blocking agent was added, and the cells were left for 1 hour at room temperature. After the cells were washed with PBS three times, the cells were fixed with 10% neutral formalin for 15 minutes at room temperature, and nuclear-stained with DAPI (LifeTechnologies). Fluorescent signals were analyzed with a fluorescence microscope BZ-9000 (Keyence).

[4] = target: T4, human ALK2-G328W on cells (human, UniProt Q04771 21-509); assay: as above
T4 sequence: T1 sequence with I182R, G308W
Experimental: as §2, §3

[5] = target: T2, human ALK2-R258S on cells; assay: as above
Experimental: as §2, §3

binding result [3]: binds
binding result [4]: binds
binding result [5]: binds
B3: rat anti-ALK2 monoclonal antibody A2-25C (antibody, V domains shown)
VH: EVQLVESGGGLVQPGGSLKLSCAASGFTFSYYAMSWVCQAPTKGLEWVASISRGGDNTYYRDTVKGRFTTSRDNAKNTLYLQMDSLRSEDTATYYCARLNYNNYFDYWGQGVMVTVSS
VL: DIQMTQSPASLSASLEEIVTITCQASQDIGNWLSWYQQKPGKSPQLLIYGATSLADGVPSRFSGSRSGTQYSLKISRLRVEDIGIYYCLQAYSAPFTFGSGTKLEIKR
notes: Rat monoclonal IgG from a hybridoma; also called 25C11

binding result [1]: binds
binding result [2]: binds
B4: rat anti-ALK2 monoclonal antibody A2-15A (antibody, V domains shown)
VH: EVQLVESGGGLVQPGRSLKLSCAASGFTFSHYYMAWVRQAPTKGLEWVASITNSGGSINYRDSVKGRFTISRDNAKSTLYLQMDSLRSEDTATYYCTREGGENYGGYPPFAYWGQGTLVTVSS
VL: DIVLTQSPALAVSLGQRATISCRANQGVSLSRYNLMHWYQQKPGQKPKLLIYRSSNLASGIPARFSGSGSGTDFTLTINPVQADDIATYYCQQSRESPFTFGAGTKLELKR
notes: Rat monoclonal IgG from a hybridoma; also called 15A6

Continued, binder first:

B1: rat anti-ALK2 monoclonal antibody A2-11E (antibody, V domains shown)
VH: EVQLVETGGGLVQPGRSLKLSCVASGFTFSNYYMYWIRQAPGKGLEWISSINTDGGSTYYPDSVKGRFAISRDNAENTVYLQMNSLRSEDTATYYCAKSTPNIPLAYWGQGTLVTVSS
VL: DIQMTQSPSLLSASVGDRVTLSCKASQNIYKYLNWFQQKLGEAPKLLIYYSNSLQTGIPSRFSGSGSGTDFTLTISSLQPEDVAIYFCFQYSSGPTFGPGTKLELKR
notes: Rat monoclonal IgG from a hybridoma; also called 11E2
binding result [1]: binds
binding result [2]: binds

B2: rat anti-ALK2 monoclonal antibody A2-27D (antibody, V domains shown)
VH: EVQLVESGGGLVQPGRSLKLSCLASGSTFSNYGMKWIRQAPGKGLEWVASISRSSTYIYYADTVKGRFTISRDNARNTLYLQMTSLRSEDTALYYCAAAISTPFYWYFDFWGPGTVVTVSS
VL: EIVLTQSPTTMAASPGEKVTLNCLASSSVSYMTWYQQKSGASPKLWIYGTSNLASGVPNRFSGSGSGTSYSLAISSMEAEDVATYYCLHLTSYPPYTFGAGTKLELKR
notes: Rat monoclonal IgG from a hybridoma; also called 27D11
binding result [3]: binds
binding result [4]: binds
binding result [5]: binds
